Patent US20150087577A1 (POLYPHOR, published 2015)
Bridges are numbered along the chain shown (N, C = ends). [ ]: non-standard residue; d: D form. Phe(4-F) = N[C@@H](Cc1ccc(F)cc1)C(=O)O; 2Nal = N[C@@H](Cc1ccc2ccccc2c1)C(=O)O; Cit = NC(=O)NCCC[C@H](N)C(=O)O

B1: Example 99 (peptide)
peptide: cyclo(YR[Phe(4-F)]CRG[dP]RR[2Nal]CYQK[dP]P)
modifications: disulfide 4-11
SMILES: N=C(N)NCCC[C@@H]1NC(=O)[C@@H]2CSSC[C@H](NC(=O)[C@H](Cc3ccc4ccccc4c3)NC(=O)[C@H](CCCNC(=N)N)NC(=O)[C@H](CCCNC(=N)N)NC(=O)[C@H]3CCCN3C(=O)CNC1=O)C(=O)N[C@@H](Cc1ccc(O)cc1)C(=O)N[C@@H](CCC(N)=O)C(=O)N[C@@H](CCCCN)C(=O)N1CCC[C@@H]1C(=O)N1CCC[C@H]1C(=O)N[C@@H](Cc1ccc(O)cc1)C(=O)N[C@@H](CCCNC(=N)N)C(=O)N[C@@H](Cc1ccc(F)cc1)C(=O)N2
B2: Example 100 (peptide)
peptide: cyclo(YRMCRG[dP]RR[2Nal]CYQK[dP]P)
modifications: disulfide 4-11
SMILES: CSCC[C@@H]1NC(=O)[C@H](CCCNC(=N)N)NC(=O)[C@H](Cc2ccc(O)cc2)NC(=O)[C@@H]2CCCN2C(=O)[C@H]2CCCN2C(=O)[C@H](CCCCN)NC(=O)[C@H](CCC(N)=O)NC(=O)[C@H](Cc2ccc(O)cc2)NC(=O)[C@@H]2CSSC[C@H](NC1=O)C(=O)N[C@@H](CCCNC(=N)N)C(=O)NCC(=O)N1CCC[C@@H]1C(=O)N[C@@H](CCCNC(=N)N)C(=O)N[C@@H](CCCNC(=N)N)C(=O)N[C@@H](Cc1ccc3ccccc3c1)C(=O)N2
B3: Example 102 (peptide)
peptide: cyclo(YRSCRG[dP]RRWCY[Cit]D[dP]P)
modifications: disulfide 4-11
SMILES: N=C(N)NCCC[C@@H]1NC(=O)[C@@H]2CSSC[C@H](NC(=O)[C@H](Cc3c[nH]c4ccccc34)NC(=O)[C@H](CCCNC(=N)N)NC(=O)[C@H](CCCNC(=N)N)NC(=O)[C@H]3CCCN3C(=O)CNC1=O)C(=O)N[C@@H](Cc1ccc(O)cc1)C(=O)N[C@@H](CCCNC(N)=O)C(=O)N[C@@H](CC(=O)O)C(=O)N1CCC[C@@H]1C(=O)N1CCC[C@H]1C(=O)N[C@@H](Cc1ccc(O)cc1)C(=O)N[C@@H](CCCNC(=N)N)C(=O)N[C@@H](CO)C(=O)N2
B4: Example 97 (peptide)
peptide: cyclo(YRLCRG[dP]RR[2Nal]CYQK[dP]P)
modifications: disulfide 4-11
SMILES: CC(C)C[C@@H]1NC(=O)[C@H](CCCNC(=N)N)NC(=O)[C@H](Cc2ccc(O)cc2)NC(=O)[C@@H]2CCCN2C(=O)[C@H]2CCCN2C(=O)[C@H](CCCCN)NC(=O)[C@H](CCC(N)=O)NC(=O)[C@H](Cc2ccc(O)cc2)NC(=O)[C@@H]2CSSC[C@H](NC1=O)C(=O)N[C@@H](CCCNC(=N)N)C(=O)NCC(=O)N1CCC[C@@H]1C(=O)N[C@@H](CCCNC(=N)N)C(=O)N[C@@H](CCCNC(=N)N)C(=O)N[C@@H](Cc1ccc3ccccc3c1)C(=O)N2
B5: Example 96 (peptide)
peptide: cyclo(YRSCRG[dP]RR[2Nal]CYQK[dP]P)
modifications: disulfide 4-11
SMILES: N=C(N)NCCC[C@@H]1NC(=O)[C@@H]2CSSC[C@H](NC(=O)[C@H](Cc3ccc4ccccc4c3)NC(=O)[C@H](CCCNC(=N)N)NC(=O)[C@H](CCCNC(=N)N)NC(=O)[C@H]3CCCN3C(=O)CNC1=O)C(=O)N[C@@H](Cc1ccc(O)cc1)C(=O)N[C@@H](CCC(N)=O)C(=O)N[C@@H](CCCCN)C(=O)N1CCC[C@@H]1C(=O)N1CCC[C@H]1C(=O)N[C@@H](Cc1ccc(O)cc1)C(=O)N[C@@H](CCCNC(=N)N)C(=O)N[C@@H](CO)C(=O)N2
B6: Example 95 (peptide)
peptide: cyclo(YRACRG[dP]RR[2Nal]CYQK[dP]P)
modifications: disulfide 4-11
SMILES: C[C@@H]1NC(=O)[C@H](CCCNC(=N)N)NC(=O)[C@H](Cc2ccc(O)cc2)NC(=O)[C@@H]2CCCN2C(=O)[C@H]2CCCN2C(=O)[C@H](CCCCN)NC(=O)[C@H](CCC(N)=O)NC(=O)[C@H](Cc2ccc(O)cc2)NC(=O)[C@@H]2CSSC[C@H](NC1=O)C(=O)N[C@@H](CCCNC(=N)N)C(=O)NCC(=O)N1CCC[C@@H]1C(=O)N[C@@H](CCCNC(=N)N)C(=O)N[C@@H](CCCNC(=N)N)C(=O)N[C@@H](Cc1ccc3ccccc3c1)C(=O)N2
B7: Example 92 (peptide)
peptide: cyclo(YRNCRG[dP]RR[2Nal]CYQK[dP]P)
modifications: disulfide 4-11
SMILES: N=C(N)NCCC[C@@H]1NC(=O)[C@@H]2CSSC[C@H](NC(=O)[C@H](Cc3ccc4ccccc4c3)NC(=O)[C@H](CCCNC(=N)N)NC(=O)[C@H](CCCNC(=N)N)NC(=O)[C@H]3CCCN3C(=O)CNC1=O)C(=O)N[C@@H](Cc1ccc(O)cc1)C(=O)N[C@@H](CCC(N)=O)C(=O)N[C@@H](CCCCN)C(=O)N1CCC[C@@H]1C(=O)N1CCC[C@H]1C(=O)N[C@@H](Cc1ccc(O)cc1)C(=O)N[C@@H](CCCNC(=N)N)C(=O)N[C@@H](CC(N)=O)C(=O)N2
B8: Example 93 (peptide)
peptide: cyclo(YRDCRG[dP]RR[2Nal]CYQK[dP]P)
modifications: disulfide 4-11
SMILES: N=C(N)NCCC[C@@H]1NC(=O)[C@@H]2CSSC[C@H](NC(=O)[C@H](Cc3ccc4ccccc4c3)NC(=O)[C@H](CCCNC(=N)N)NC(=O)[C@H](CCCNC(=N)N)NC(=O)[C@H]3CCCN3C(=O)CNC1=O)C(=O)N[C@@H](Cc1ccc(O)cc1)C(=O)N[C@@H](CCC(N)=O)C(=O)N[C@@H](CCCCN)C(=O)N1CCC[C@@H]1C(=O)N1CCC[C@H]1C(=O)N[C@@H](Cc1ccc(O)cc1)C(=O)N[C@@H](CCCNC(=N)N)C(=O)N[C@@H](CC(=O)O)C(=O)N2
B9: Example 94 (peptide)
peptide: cyclo(YRKCRG[dP]RR[2Nal]CYQK[dP]P)
modifications: disulfide 4-11
SMILES: N=C(N)NCCC[C@@H]1NC(=O)[C@@H]2CSSC[C@H](NC(=O)[C@H](Cc3ccc4ccccc4c3)NC(=O)[C@H](CCCNC(=N)N)NC(=O)[C@H](CCCNC(=N)N)NC(=O)[C@H]3CCCN3C(=O)CNC1=O)C(=O)N[C@@H](Cc1ccc(O)cc1)C(=O)N[C@@H](CCC(N)=O)C(=O)N[C@@H](CCCCN)C(=O)N1CCC[C@@H]1C(=O)N1CCC[C@H]1C(=O)N[C@@H](Cc1ccc(O)cc1)C(=O)N[C@@H](CCCNC(=N)N)C(=O)N[C@@H](CCCCN)C(=O)N2
B10: Example 91 (peptide)
peptide: cyclo(MR[Cit]CRG[dP]RR[2Nal]CYQK[dP]P)
modifications: disulfide 4-11
SMILES: CSCC[C@@H]1NC(=O)[C@@H]2CCCN2C(=O)[C@H]2CCCN2C(=O)[C@H](CCCCN)NC(=O)[C@H](CCC(N)=O)NC(=O)[C@H](Cc2ccc(O)cc2)NC(=O)[C@@H]2CSSC[C@H](NC(=O)[C@H](CCCNC(N)=O)NC(=O)[C@H](CCCNC(=N)N)NC1=O)C(=O)N[C@@H](CCCNC(=N)N)C(=O)NCC(=O)N1CCC[C@@H]1C(=O)N[C@@H](CCCNC(=N)N)C(=O)N[C@@H](CCCNC(=N)N)C(=O)N[C@@H](Cc1ccc3ccccc3c1)C(=O)N2
B11: Example 101 (peptide)
peptide: cyclo(YR[Cit]CSG[dP]RR[2Nal]CYQK[dP]P)
modifications: disulfide 4-11
SMILES: N=C(N)NCCC[C@@H]1NC(=O)[C@H](CCCNC(=N)N)NC(=O)[C@H]2CCCN2C(=O)CNC(=O)[C@H](CO)NC(=O)[C@@H]2CSSC[C@H](NC(=O)[C@H](Cc3ccc4ccccc4c3)NC1=O)C(=O)N[C@@H](Cc1ccc(O)cc1)C(=O)N[C@@H](CCC(N)=O)C(=O)N[C@@H](CCCCN)C(=O)N1CCC[C@@H]1C(=O)N1CCC[C@H]1C(=O)N[C@@H](Cc1ccc(O)cc1)C(=O)N[C@@H](CCCNC(=N)N)C(=O)N[C@@H](CCCNC(N)=O)C(=O)N2
B12: Example 90 (peptide)
peptide: cyclo(VR[Cit]CRG[dP]RR[2Nal]CYQK[dP]P)
modifications: disulfide 4-11
SMILES: CC(C)[C@@H]1NC(=O)[C@@H]2CCCN2C(=O)[C@H]2CCCN2C(=O)[C@H](CCCCN)NC(=O)[C@H](CCC(N)=O)NC(=O)[C@H](Cc2ccc(O)cc2)NC(=O)[C@@H]2CSSC[C@H](NC(=O)[C@H](CCCNC(N)=O)NC(=O)[C@H](CCCNC(=N)N)NC1=O)C(=O)N[C@@H](CCCNC(=N)N)C(=O)NCC(=O)N1CCC[C@@H]1C(=O)N[C@@H](CCCNC(=N)N)C(=O)N[C@@H](CCCNC(=N)N)C(=O)N[C@@H](Cc1ccc3ccccc3c1)C(=O)N2
B13: Example 98 (peptide)
peptide: cyclo(YRVCRG[dP]RR[2Nal]CYQK[dP]P)
modifications: disulfide 4-11
SMILES: CC(C)[C@@H]1NC(=O)[C@H](CCCNC(=N)N)NC(=O)[C@H](Cc2ccc(O)cc2)NC(=O)[C@@H]2CCCN2C(=O)[C@H]2CCCN2C(=O)[C@H](CCCCN)NC(=O)[C@H](CCC(N)=O)NC(=O)[C@H](Cc2ccc(O)cc2)NC(=O)[C@@H]2CSSC[C@H](NC1=O)C(=O)N[C@@H](CCCNC(=N)N)C(=O)NCC(=O)N1CCC[C@@H]1C(=O)N[C@@H](CCCNC(=N)N)C(=O)N[C@@H](CCCNC(=N)N)C(=O)N[C@@H](Cc1ccc3ccccc3c1)C(=O)N2
B14: Example 20 (peptide)
peptide: cyclo(YR[Cit]FR[Cit]PRR[2Nal]VY[Cit]K[dP]P)
SMILES: CC(C)[C@@H]1NC(=O)[C@H](Cc2ccc3ccccc3c2)NC(=O)[C@H](CCCNC(=N)N)NC(=O)[C@H](CCCNC(=N)N)NC(=O)[C@@H]2CCCN2C(=O)[C@H](CCCNC(N)=O)NC(=O)[C@H](CCCNC(=N)N)NC(=O)[C@H](Cc2ccccc2)NC(=O)[C@H](CCCNC(N)=O)NC(=O)[C@H](CCCNC(=N)N)NC(=O)[C@H](Cc2ccc(O)cc2)NC(=O)[C@@H]2CCCN2C(=O)[C@H]2CCCN2C(=O)[C@H](CCCCN)NC(=O)[C@H](CCCNC(N)=O)NC(=O)[C@H](Cc2ccc(O)cc2)NC1=O

These binders were tested against human CXCR4 (human, UniProt P61073 1-352) (assay: cell-based or functional assay).
human CXCR4, sequence (P61073 whole entry): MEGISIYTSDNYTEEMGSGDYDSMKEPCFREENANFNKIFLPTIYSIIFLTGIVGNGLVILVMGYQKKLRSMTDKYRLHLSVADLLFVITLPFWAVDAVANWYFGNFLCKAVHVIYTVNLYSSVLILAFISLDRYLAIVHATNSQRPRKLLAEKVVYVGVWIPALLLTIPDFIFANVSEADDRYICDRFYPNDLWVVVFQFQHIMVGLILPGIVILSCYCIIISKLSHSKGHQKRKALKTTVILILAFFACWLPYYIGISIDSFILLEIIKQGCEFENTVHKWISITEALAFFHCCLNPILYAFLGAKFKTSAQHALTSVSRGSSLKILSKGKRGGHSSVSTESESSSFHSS

In order of rising “IC50 (nM) Ca2+ assay (method 2)” value:
1. B7  1.1 nM
2. B11  1.28 nM
3. B10  2.1 nM
4. B9  2.5 nM
5. B6  2.9 nM
6. B5  3 nM
7. B13  3.9 nM
8. B1  4.2 nM
9. B4  4.3 nM
10. B8  4.3 nM
11. B2  7 nM
12. B3  8 nM
13. B12  19.5 nM

With B14 the “IC50 (nM) Ca2+ assay (method 1)” value was 3730 nM.
